From IntAct's records for PubMed 29039417 come the findings set out here.

The labels stand for the following.
B1: BBSome complex member BBS2 (Homo sapiens), Q9BXC9 (parent)
chain: MLLPVFTLKLRHKISPRMVAIGRYDGTHPCLAAATQTGKVFIHNPHTRNQHVSASRVFQSPLESDVSLLSINQAVSCLTAGVLNPELGYDALLVGTQTNLLAYDVYNNSDLFYREVADGANAIVLGTLGDISSPLAIIGGNCALQGFNHEGSDLFWTVTGDNVNSLALCDFDGDGKKELLVGSEDFDIRVFKEDEIVAEMTETEIVTSLCPMYGSRFGYALSNGTVGVYDKTSRYWRIKSKNHAMSIHAFDLNSDGVNELITGWSNGKVDARSDRTGEVIFKDNFSSAIAGVVEGDYRMDGHIQLICCSVDGEIRGYLPGTAEMRGNLMDTSAEQDLIRELSQKKQNLLLELRNYEENAKAELASPLNEADGHRGIIPANTRLHTTLSVSLGNETQTAHTELRISTSNDTIIRAVLIFAEGIFTGESHVVHPSIHNLSSSICIPIVPPKDVPVDLHLKAFVGYRSSTQFHVFESTRQLPRFSMYALTSLDPASEPISYVNFTIAERAQRVVVWLGQNFLLPEDTHIQNAPFQVCFTSLRNGGHLHIKIKLSGEITINTDDIDLAGDIIQSMASFFAIEDLQVEADFPVYFEELRKVLVKVDEYHSVHQKLSADMADHSNLIRSLLVGAEDARLMRDMKTMKSRYMELYDLNRDLLNGYKIRCNNHTELLGNLKAVNQAIQRAGRLRVGKPKNQVITACRDAIRSNNINTLFKIMRVGTASS
partner: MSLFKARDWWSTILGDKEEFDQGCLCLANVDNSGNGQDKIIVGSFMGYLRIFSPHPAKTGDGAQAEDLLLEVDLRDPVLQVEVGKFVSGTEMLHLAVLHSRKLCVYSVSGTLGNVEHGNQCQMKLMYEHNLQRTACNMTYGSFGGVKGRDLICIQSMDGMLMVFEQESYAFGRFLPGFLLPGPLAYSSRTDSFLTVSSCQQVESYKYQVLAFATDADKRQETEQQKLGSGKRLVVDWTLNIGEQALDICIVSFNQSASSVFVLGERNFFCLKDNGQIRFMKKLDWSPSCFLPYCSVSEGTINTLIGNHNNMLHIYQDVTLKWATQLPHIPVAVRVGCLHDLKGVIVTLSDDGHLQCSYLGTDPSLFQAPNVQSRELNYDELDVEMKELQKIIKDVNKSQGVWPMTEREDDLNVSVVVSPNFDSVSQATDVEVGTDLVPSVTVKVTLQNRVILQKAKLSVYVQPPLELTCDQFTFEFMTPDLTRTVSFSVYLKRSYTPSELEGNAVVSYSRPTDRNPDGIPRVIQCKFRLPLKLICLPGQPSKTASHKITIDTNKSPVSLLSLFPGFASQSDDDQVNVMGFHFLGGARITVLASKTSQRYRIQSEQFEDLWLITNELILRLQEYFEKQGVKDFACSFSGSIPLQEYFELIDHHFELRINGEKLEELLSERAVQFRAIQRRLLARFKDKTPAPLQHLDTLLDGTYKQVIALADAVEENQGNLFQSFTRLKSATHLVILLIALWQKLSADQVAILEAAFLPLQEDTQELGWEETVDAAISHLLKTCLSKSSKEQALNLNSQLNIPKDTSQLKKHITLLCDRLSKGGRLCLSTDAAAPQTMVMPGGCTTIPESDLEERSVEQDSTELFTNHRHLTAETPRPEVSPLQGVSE

Variants of B1 are the subject of this assay. To be noted: with pthb1_human BBS9, Q3SYG4.
Take I443E: the “effect of a mutation on the interaction” value is “disrupting interaction strength”.

For N368K, the “effect of a mutation on the interaction” value is “with no effect”. With S605K, the “effect of a mutation on the interaction” value is recorded as “with no effect”. As for E667A, the “effect of a mutation on the interaction” value was “with no effect”.

For the variant A485K, the “effect of a mutation on the interaction” value is reported as “with no effect”. Consider D616A, for which the “effect of a mutation on the interaction” value is on record as “with no effect”. For the variant N408K, the “effect of a mutation on the interaction” value was “with no effect”. As for V687A, the “effect of a mutation on the interaction” value was “with no effect”. Take P432L: the “effect of a mutation on the interaction” value is given as “disrupting interaction strength”.

As for I526K, the “effect of a mutation on the interaction” value was “with no effect”. For the variant I526E, the “effect of a mutation on the interaction” value is on record as “with no effect”. The same measure for N517A: “with no effect”; for E394K: “with no effect”. Next, M714A: “with no effect”; M714K: “with no effect”. Regarding T424A, the “effect of a mutation on the interaction” value is “with no effect”.

T331E: the “effect of a mutation on the interaction” value was “with no effect”. Next, T331K: “with no effect”; M637E: “with no effect”. As to F481K, the “effect of a mutation on the interaction” value is “disrupting interaction strength”.

On to F481A, for which the “effect of a mutation on the interaction” value is “disrupting interaction strength”.

As for V451E, the “effect of a mutation on the interaction” value is given as “with no effect”. The same measure for L350E: “with no effect”; for A572E: “with no effect”; for G326K: “with no effect”.

With K712E, the “effect of a mutation on the interaction” value was “with no effect”. As to G515E, the “effect of a mutation on the interaction” value is given as “with no effect”. Next, G515C: “disrupting interaction strength”; S497E: “with no effect”. For the variant C442E, the “effect of a mutation on the interaction” value was “with no effect”. On to V429A, for which the “effect of a mutation on the interaction” value was “with no effect”. For H384E, the “effect of a mutation on the interaction” value is “with no effect”. Regarding L624K, the “effect of a mutation on the interaction” value is “with no effect”.

Consider A419K, for which the “effect of a mutation on the interaction” value is “with no effect”. In the case of Y644K, the “effect of a mutation on the interaction” value was “with no effect”.

Take A529E: the “effect of a mutation on the interaction” value is given as “with no effect”.

Turning to Y484K, the “effect of a mutation on the interaction” value is reported as “disrupting interaction strength”. In the case of R325E, the “effect of a mutation on the interaction” value is on record as “with no effect”. On to I422E, for which the “effect of a mutation on the interaction” value is reported as “with no effect”. The same measure for E592A: “with no effect”; for Y498E: “with no effect”.

Take P587K: the “effect of a mutation on the interaction” value is “with no effect”.

For the variant V389S, the “effect of a mutation on the interaction” value is “disrupting interaction strength”. The same measure for H525A: “with no effect”; for H525K: “with no effect”; for N663K: “with no effect”. With L328A, the “effect of a mutation on the interaction” value is given as “with no effect”. Turning to Q677L, the “effect of a mutation on the interaction” value is given as “disrupting interaction strength”. Turning to S488R, the “effect of a mutation on the interaction” value is on record as “disrupting interaction strength”. The same measure for Q581A: “with no effect”. As for V511K, the “effect of a mutation on the interaction” value is “with no effect”.

For Q680K, the “effect of a mutation on the interaction” value was “with no effect”. For the variant T385A, the “effect of a mutation on the interaction” value is on record as “disrupting interaction strength”. On to S618K, for which the “effect of a mutation on the interaction” value is reported as “with no effect”.

As to M483I, the “effect of a mutation on the interaction” value is “disrupting interaction strength”. The same measure for E362A: “with no effect”; for E356K: “with no effect”. Turning to H604E, the “effect of a mutation on the interaction” value is reported as “with no effect”. The same measure for T555H: “disrupting interaction strength”. Consider T555A, for which the “effect of a mutation on the interaction” value is “with no effect”.

S440E: the “effect of a mutation on the interaction” value is “with no effect”. Take Q569E: the “effect of a mutation on the interaction” value is “with no effect”. On to L352E, for which the “effect of a mutation on the interaction” value is given as “with no effect”. As to I441K, the “effect of a mutation on the interaction” value is recorded as “with no effect”. Regarding H399K, the “effect of a mutation on the interaction” value is “with no effect”.

As to R506E, the “effect of a mutation on the interaction” value was “with no effect”. For E522K, the “effect of a mutation on the interaction” value was “with no effect”.

As for S570E, the “effect of a mutation on the interaction” value was “with no effect”. With S570L, the “effect of a mutation on the interaction” value is on record as “disrupting interaction strength”. The same measure for S721E: “with no effect”; for R661E: “with no effect”. The same measure for E494K: “with no effect”. In the case of I412A, the “effect of a mutation on the interaction” value was “with no effect”.

For the variant V626E, the “effect of a mutation on the interaction” value is reported as “with no effect”. With L654K, the “effect of a mutation on the interaction” value is “with no effect”. For the variant L367A, the “effect of a mutation on the interaction” value is “with no effect”. D566E: the “effect of a mutation on the interaction” value was “with no effect”. Turning to E602A, the “effect of a mutation on the interaction” value was “with no effect”.

Consider E602K, for which the “effect of a mutation on the interaction” value is “with no effect”. For G542E, the “effect of a mutation on the interaction” value is reported as “with no effect”. Turning to Y658A, the “effect of a mutation on the interaction” value is on record as “with no effect”. Turning to M614E, the “effect of a mutation on the interaction” value was “with no effect”. The same measure for G372A: “with no effect”; for T381K: “with no effect”; for S388A: “with no effect”. In the case of S388E, the “effect of a mutation on the interaction” value is listed as “with no effect”. Regarding N528E, the “effect of a mutation on the interaction” value is on record as “with no effect”. Consider S365E, for which the “effect of a mutation on the interaction” value is “with no effect”. As for L650K, the “effect of a mutation on the interaction” value is “with no effect”.
